Measurements published in patent US20210032299A1 (Eli Lilly, published 2021).
Starred links: 1 amine or outer side, 2 acyl side, 3 side chain; linkers in the order of their positions; H or OH if unused. Non-standard residues stand in square brackets, D forms with d. Groups on a side chain read outwards from the residue. No end group written: not given here. *: point of attachment. C20 diacid = O=C(O)CCCCCCCCCCCCCCCCCCC(=O)*; γGlu = O=C(O)[C@H](CCC(=O)[*:2])N[*:1]; αMeL = CC(C)C[C@](C)(N)C(=O)O; AEEA = NCCOCCOCC(=O)O; Aib = CC(C)(N)C(=O)O

T1: human glucose-dependent insulinotropic polypeptide (GIP) receptor (human, UniProt P48546 22-466)
T1 construct: whole, on cells; Assayed as crude membranes of stably transfected CHO cells; also called hGIPR; human GIP receptor
T1 sequence (looked up): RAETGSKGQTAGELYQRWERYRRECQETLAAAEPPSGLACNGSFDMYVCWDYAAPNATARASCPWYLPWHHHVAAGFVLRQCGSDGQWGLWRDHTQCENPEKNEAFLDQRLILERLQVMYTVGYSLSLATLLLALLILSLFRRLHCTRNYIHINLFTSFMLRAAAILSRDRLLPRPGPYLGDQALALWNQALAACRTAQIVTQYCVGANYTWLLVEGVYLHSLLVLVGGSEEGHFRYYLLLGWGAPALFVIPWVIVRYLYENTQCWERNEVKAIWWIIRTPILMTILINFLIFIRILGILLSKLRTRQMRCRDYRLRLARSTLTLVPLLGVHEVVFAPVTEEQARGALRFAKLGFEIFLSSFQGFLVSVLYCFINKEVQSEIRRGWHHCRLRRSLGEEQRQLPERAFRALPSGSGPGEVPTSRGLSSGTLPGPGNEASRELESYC

B1: Example 66 (peptide)
peptide: Y[Aib]EGTFISDYSI[αMeL]LDKK([AEEA-AEEA-γGlu-C20 diacid])HQ[Aib]DFVEYLLETGPSSGAPPPS-NH2
modifications: N-terminus assumed
SMILES: CC[C@H](C)[C@H](NC(=O)[C@H](Cc1ccccc1)NC(=O)[C@@H](NC(=O)CNC(=O)[C@H](CCC(=O)O)NC(=O)C(C)(C)NC(=O)[C@@H](N)Cc1ccc(O)cc1)[C@@H](C)O)C(=O)N[C@@H](CO)C(=O)N[C@@H](CC(=O)O)C(=O)N[C@@H](Cc1ccc(O)cc1)C(=O)N[C@@H](CO)C(=O)N[C@H](C(=O)N[C@@](C)(CC(C)C)C(=O)N[C@@H](CC(C)C)C(=O)N[C@@H](CC(=O)O)C(=O)N[C@@H](CCCCN)C(=O)N[C@@H](CCCCNC(=O)COCCOCCNC(=O)COCCOCCNC(=O)CC[C@H](NC(=O)CCCCCCCCCCCCCCCCCCC(=O)O)C(=O)O)C(=O)N[C@@H](Cc1c[nH]cn1)C(=O)N[C@@H](CCC(N)=O)C(=O)NC(C)(C)C(=O)N[C@@H](CC(=O)O)C(=O)N[C@@H](Cc1ccccc1)C(=O)N[C@H](C(=O)N[C@@H](CCC(=O)O)C(=O)N[C@@H](Cc1ccc(O)cc1)C(=O)N[C@@H](CC(C)C)C(=O)N[C@@H](CC(C)C)C(=O)N[C@@H](CCC(=O)O)C(=O)N[C@H](C(=O)NCC(=O)N1CCC[C@H]1C(=O)N[C@@H](CO)C(=O)N[C@@H](CO)C(=O)NCC(=O)N[C@@H](C)C(=O)N1CCC[C@H]1C(=O)N1CCC[C@H]1C(=O)N1CCC[C@H]1C(=O)N[C@@H](CO)C(N)=O)[C@@H](C)O)C(C)C)[C@@H](C)CC
B2: Example 73 (peptide)
peptide: Y[Aib]EGTLISDYSI[αMeL]LDKK([AEEA-AEEA-γGlu-C20 diacid])HQ[Aib]EFVEYLLEGGPSSGAPPPS-NH2
modifications: N-terminus assumed
SMILES: CC[C@H](C)[C@H](NC(=O)[C@H](CC(C)C)NC(=O)[C@@H](NC(=O)CNC(=O)[C@H](CCC(=O)O)NC(=O)C(C)(C)NC(=O)[C@@H](N)Cc1ccc(O)cc1)[C@@H](C)O)C(=O)N[C@@H](CO)C(=O)N[C@@H](CC(=O)O)C(=O)N[C@@H](Cc1ccc(O)cc1)C(=O)N[C@@H](CO)C(=O)N[C@H](C(=O)N[C@@](C)(CC(C)C)C(=O)N[C@@H](CC(C)C)C(=O)N[C@@H](CC(=O)O)C(=O)N[C@@H](CCCCN)C(=O)N[C@@H](CCCCNC(=O)COCCOCCNC(=O)COCCOCCNC(=O)CC[C@H](NC(=O)CCCCCCCCCCCCCCCCCCC(=O)O)C(=O)O)C(=O)N[C@@H](Cc1c[nH]cn1)C(=O)N[C@@H](CCC(N)=O)C(=O)NC(C)(C)C(=O)N[C@@H](CCC(=O)O)C(=O)N[C@@H](Cc1ccccc1)C(=O)N[C@H](C(=O)N[C@@H](CCC(=O)O)C(=O)N[C@@H](Cc1ccc(O)cc1)C(=O)N[C@@H](CC(C)C)C(=O)N[C@@H](CC(C)C)C(=O)N[C@@H](CCC(=O)O)C(=O)NCC(=O)NCC(=O)N1CCC[C@H]1C(=O)N[C@@H](CO)C(=O)N[C@@H](CO)C(=O)NCC(=O)N[C@@H](C)C(=O)N1CCC[C@H]1C(=O)N1CCC[C@H]1C(=O)N1CCC[C@H]1C(=O)N[C@@H](CO)C(N)=O)C(C)C)[C@@H](C)CC
B3: Example 68 (peptide)
peptide: Y[Aib]EGTFISDYSI[αMeL]LDKK([AEEA-AEEA-γGlu-C20 diacid])HQ[Aib]DFVEYLLEAGPSSGAPPPS-NH2
modifications: N-terminus assumed
SMILES: CC[C@H](C)[C@H](NC(=O)[C@H](Cc1ccccc1)NC(=O)[C@@H](NC(=O)CNC(=O)[C@H](CCC(=O)O)NC(=O)C(C)(C)NC(=O)[C@@H](N)Cc1ccc(O)cc1)[C@@H](C)O)C(=O)N[C@@H](CO)C(=O)N[C@@H](CC(=O)O)C(=O)N[C@@H](Cc1ccc(O)cc1)C(=O)N[C@@H](CO)C(=O)N[C@H](C(=O)N[C@@](C)(CC(C)C)C(=O)N[C@@H](CC(C)C)C(=O)N[C@@H](CC(=O)O)C(=O)N[C@@H](CCCCN)C(=O)N[C@@H](CCCCNC(=O)COCCOCCNC(=O)COCCOCCNC(=O)CC[C@H](NC(=O)CCCCCCCCCCCCCCCCCCC(=O)O)C(=O)O)C(=O)N[C@@H](Cc1c[nH]cn1)C(=O)N[C@@H](CCC(N)=O)C(=O)NC(C)(C)C(=O)N[C@@H](CC(=O)O)C(=O)N[C@@H](Cc1ccccc1)C(=O)N[C@H](C(=O)N[C@@H](CCC(=O)O)C(=O)N[C@@H](Cc1ccc(O)cc1)C(=O)N[C@@H](CC(C)C)C(=O)N[C@@H](CC(C)C)C(=O)N[C@@H](CCC(=O)O)C(=O)N[C@@H](C)C(=O)NCC(=O)N1CCC[C@H]1C(=O)N[C@@H](CO)C(=O)N[C@@H](CO)C(=O)NCC(=O)N[C@@H](C)C(=O)N1CCC[C@H]1C(=O)N1CCC[C@H]1C(=O)N1CCC[C@H]1C(=O)N[C@@H](CO)C(N)=O)C(C)C)[C@@H](C)CC
B4: Example 71 (peptide)
peptide: Y[Aib]EGTFISDYSI[αMeL]LDKK([AEEA-AEEA-γGlu-C20 diacid])HQ[Aib]DFVEWLLETGPSSGAPPPS-NH2
modifications: N-terminus assumed
SMILES: CC[C@H](C)[C@H](NC(=O)[C@H](Cc1ccccc1)NC(=O)[C@@H](NC(=O)CNC(=O)[C@H](CCC(=O)O)NC(=O)C(C)(C)NC(=O)[C@@H](N)Cc1ccc(O)cc1)[C@@H](C)O)C(=O)N[C@@H](CO)C(=O)N[C@@H](CC(=O)O)C(=O)N[C@@H](Cc1ccc(O)cc1)C(=O)N[C@@H](CO)C(=O)N[C@H](C(=O)N[C@@](C)(CC(C)C)C(=O)N[C@@H](CC(C)C)C(=O)N[C@@H](CC(=O)O)C(=O)N[C@@H](CCCCN)C(=O)N[C@@H](CCCCNC(=O)COCCOCCNC(=O)COCCOCCNC(=O)CC[C@H](NC(=O)CCCCCCCCCCCCCCCCCCC(=O)O)C(=O)O)C(=O)N[C@@H](Cc1c[nH]cn1)C(=O)N[C@@H](CCC(N)=O)C(=O)NC(C)(C)C(=O)N[C@@H](CC(=O)O)C(=O)N[C@@H](Cc1ccccc1)C(=O)N[C@H](C(=O)N[C@@H](CCC(=O)O)C(=O)N[C@@H](Cc1c[nH]c2ccccc12)C(=O)N[C@@H](CC(C)C)C(=O)N[C@@H](CC(C)C)C(=O)N[C@@H](CCC(=O)O)C(=O)N[C@H](C(=O)NCC(=O)N1CCC[C@H]1C(=O)N[C@@H](CO)C(=O)N[C@@H](CO)C(=O)NCC(=O)N[C@@H](C)C(=O)N1CCC[C@H]1C(=O)N1CCC[C@H]1C(=O)N1CCC[C@H]1C(=O)N[C@@H](CO)C(N)=O)[C@@H](C)O)C(C)C)[C@@H](C)CC
B5: Example 72 (peptide)
peptide: Y[Aib]EGTLISDYSI[αMeL]LDKK([AEEA-AEEA-γGlu-C20 diacid])HQ[Aib]EFVEYLLETGPSSGAPPPS-NH2
modifications: N-terminus assumed
SMILES: CC[C@H](C)[C@H](NC(=O)[C@H](CC(C)C)NC(=O)[C@@H](NC(=O)CNC(=O)[C@H](CCC(=O)O)NC(=O)C(C)(C)NC(=O)[C@@H](N)Cc1ccc(O)cc1)[C@@H](C)O)C(=O)N[C@@H](CO)C(=O)N[C@@H](CC(=O)O)C(=O)N[C@@H](Cc1ccc(O)cc1)C(=O)N[C@@H](CO)C(=O)N[C@H](C(=O)N[C@@](C)(CC(C)C)C(=O)N[C@@H](CC(C)C)C(=O)N[C@@H](CC(=O)O)C(=O)N[C@@H](CCCCN)C(=O)N[C@@H](CCCCNC(=O)COCCOCCNC(=O)COCCOCCNC(=O)CC[C@H](NC(=O)CCCCCCCCCCCCCCCCCCC(=O)O)C(=O)O)C(=O)N[C@@H](Cc1c[nH]cn1)C(=O)N[C@@H](CCC(N)=O)C(=O)NC(C)(C)C(=O)N[C@@H](CCC(=O)O)C(=O)N[C@@H](Cc1ccccc1)C(=O)N[C@H](C(=O)N[C@@H](CCC(=O)O)C(=O)N[C@@H](Cc1ccc(O)cc1)C(=O)N[C@@H](CC(C)C)C(=O)N[C@@H](CC(C)C)C(=O)N[C@@H](CCC(=O)O)C(=O)N[C@H](C(=O)NCC(=O)N1CCC[C@H]1C(=O)N[C@@H](CO)C(=O)N[C@@H](CO)C(=O)NCC(=O)N[C@@H](C)C(=O)N1CCC[C@H]1C(=O)N1CCC[C@H]1C(=O)N1CCC[C@H]1C(=O)N[C@@H](CO)C(N)=O)[C@@H](C)O)C(C)C)[C@@H](C)CC

The binders below were run against T2, human GLP-1 receptor (human, UniProt P43220 24-463) (assay: SPA, displacement of [125I]-GLP-1 from hGLP-1R membranes, 0.1% bacitracin).
T2 construct: whole, on cells; Assayed as crude membranes of stably transfected HEK293 cells; also called hGLP1R; hGLP-1R
Procedure, shortened: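 Binding buffer: 25 mM HEPES pH 7.4, 2.5 mM CaCl₂, 1 mM MgCl₂, 0.1% bacitracin, 0.003% Tween-20, protease inhibitors without EDTA. Four-parameter nonlinear regression; Kᵢ given as geometric mean ± SEM, n = independent replicates run on different days.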

Binder	Ki
B1	326 nM
B2	117 nM
B3	421 nM
B4	347 nM
B5	437 nM

Each binder was assayed against T3, human glucagon receptor (human, UniProt P47871 26-477) (assay: SPA, displacement of [125I]-Gcg from hGcgR membranes, 0.1% bacitracin).
T3 construct: whole, on cells; Assayed as crude membranes of stably transfected HEK293 cells; also called hGcgR; GcgR
Procedure, shortened: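 Binding buffer: 25 mM HEPES pH 7.4, 2.5 mM CaCl₂, 1 mM MgCl₂, 0.003% Tween-20, protease inhibitors without EDTA. Counted by scintillation after 12 h incubation/settling at room temperature. Four-parameter nonlinear fit; Kᵢ given as geometric mean ± SEM of independent replicates run on different days.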

T3 sequence (P47871 26-477): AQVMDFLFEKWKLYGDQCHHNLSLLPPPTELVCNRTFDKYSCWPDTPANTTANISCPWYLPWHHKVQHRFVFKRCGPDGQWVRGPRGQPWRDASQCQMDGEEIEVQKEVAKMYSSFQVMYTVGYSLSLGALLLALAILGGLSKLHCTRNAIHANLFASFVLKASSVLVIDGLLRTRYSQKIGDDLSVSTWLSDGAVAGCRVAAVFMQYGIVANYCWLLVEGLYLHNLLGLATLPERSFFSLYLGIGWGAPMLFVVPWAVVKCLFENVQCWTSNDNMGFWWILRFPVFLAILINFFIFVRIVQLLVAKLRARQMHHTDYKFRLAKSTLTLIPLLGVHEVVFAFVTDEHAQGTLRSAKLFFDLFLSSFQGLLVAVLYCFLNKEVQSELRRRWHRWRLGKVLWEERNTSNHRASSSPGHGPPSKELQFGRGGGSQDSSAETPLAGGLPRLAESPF

Binder	Ki
B1	279 nM
B2	292 nM
B3	290 nM
B4	102 nM
B5	837 nM

These binders were tested against T1, human glucose-dependent insulinotropic … (assay: SPA, displacement of [125I]-GIP from hGIPR membranes, 0.1% bacitracin).

Binder	Ki
B1	0.0866 nM
B2	0.036 nM
B3	0.0948 nM
B4	0.0422 nM
B5	0.0594 nM
